Results on five substances are retold here after patent US20090263836A1.

“And” between values parts separate entries of the source, which are not always exact repeats. Equal entries are not always repeated. Where two headings read alike, the source gives them in different places.

Assay [1] deals with BoNT/A binding domain (rBoNT/A-HC) (Clostridium botulinum).
Assay [2] has the same target. This is another data set of the same source.

Chain of BoNT/A binding domain (rBoNT/A-HC) (Clostridium botulinum) (P0DPI1 873-1296): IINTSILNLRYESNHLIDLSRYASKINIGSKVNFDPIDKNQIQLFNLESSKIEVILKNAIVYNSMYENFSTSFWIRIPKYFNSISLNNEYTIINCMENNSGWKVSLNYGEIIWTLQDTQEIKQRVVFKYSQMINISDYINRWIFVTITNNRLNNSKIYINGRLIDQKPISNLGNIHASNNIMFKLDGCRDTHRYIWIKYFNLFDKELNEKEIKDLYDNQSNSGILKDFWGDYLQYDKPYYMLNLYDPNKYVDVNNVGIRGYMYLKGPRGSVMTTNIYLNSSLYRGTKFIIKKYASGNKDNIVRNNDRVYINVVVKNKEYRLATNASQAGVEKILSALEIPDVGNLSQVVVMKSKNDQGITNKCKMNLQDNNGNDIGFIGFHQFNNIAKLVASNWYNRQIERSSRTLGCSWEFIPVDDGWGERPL

With “FGFR1 (transfected, pReceiver-M02/FGFR1) (receptor)”, in assay [1], the RUMax was 480 RU and 470 RU and 330 RU.

For “FGFR2 (transfected, pReceiver-M02/FGFR2) (receptor)”, in assay [1], the Percentage increase is 46% and 24% and 40%; the RUMax is 510 RU and 460 RU and 450 RU.

In the case of “FGFR3 (transfected, pReceiver-M02/FGFR3) (receptor)”, in assay [1], the Percentage increase is 46% and 38% and 40%; the RUMax is 510 RU and 450 RU. Further, in assay [2], the Percentage increase was 73%; the RUMax is 225 RU and 110 RU.

For the substance FGFR3 and SV2C co-transfected, in assay [2], the Percentage increase was 27% and 13%; the RUMax was 165 RU and 90 RU.

For “SV2C (transfected, pReceiver-M02/SV2C) (receptor)”, in assay [2], the Percentage increase was 8% and 6%; the RUMax was 140 RU and 85 RU.
